This data set concerns the molecule itself. The data set is described as follows: CD thermal denaturation at 222 nm, 16 uM, homodimer. The procedure:
16 μM of Mad1*DN, Mad1*DN-KR and/or Max* diluted in Phosphate buffer (50 mM) containing 50 mM KCl and 0.5 mM TCEP were subjected to temperature increase as the dichroic signal corresponding to α-Helical signal (222 nm) was recorded. Individual denaturation curves for each protein was recorded. To compare the heterodimeric complex formation, Mad1*DN or Mad1*DN-KR were mixed with Max* at equimolar concentration (16 μM each) in the same buffer adjusted at 1 mM TCEP. The experimental denaturation curves of the complexes (Mad1*DN/Max* or Mad1DN-KR/Max*) were compared to the summation of the individual curves of each homodimer which correspond to an absence of interaction between the two proteins in solution.

B1: Mad1*DN-KR (Mad1 b-HLH-LZ domain with C75S, E77K, G81R, C111S, D112N) (other)
chain: MSRSTHNEMEKNRRAHLRLSLKKLKRLVPLGPESSRHTTLSLLTKAKLHIKKLEDSNRKAVHQVDQLQREQRHLKRQLEKLGGSGC
notes: Engineered variant of the human Mad1 b-HLH-LZ domain; It forms a homodimer alone and a heterodimer with Max*; also called KR analog of Mad1*DN
As for B1, the binding result is “binds”.
